The nanobody polyreactivity screen of Harvey et al. (2022)

Assay: yeast display, Sf9 membrane polyspecificity reagent, FACS + sequencing; frameworks hold sequencing errors
How it was run: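 After 36–48 hours of galactose induction, yeast (Saccharomyces cerevisiae BJ5465) displaying a synthetic nanobody library were stained at 4 °C for 1 hour with 10% biotinylated, detergent-solubilized Sf9 membrane reagent. Streptavidin microbeads enriched the stained cells before FACS sorting into low and high (top ~1%) gates on anti-HA and streptavidin fluorescence. Each clone's polyreactivity label reflects its gate of origin.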

| Sequence | polyreactivity (PSR sort gate) |
| --- | --- |
| QVQLVESGGGLVQAGGSLRLSCAASGRIFPKYAMGWYRQAPGKERELVATINSGTRTYADSVKGRFTISRDNAKNTVYLEMNSLKPEDTAVYYCARRGYYYDYWGQGTQVTVSS | high polyreactivity |
| QVQLVESGGGLVQAGGSLRLSCAASGRIFPLYAMGWYRPAPGKERELVADISVTGTSTYYADSVKGRFTISRDNAKNTVYLQMNSLKPEDTAVYYCAADLWAYGPLWRWSRADYDYWGQGTQVTVSS | low polyreactivity |
| QVQLVESGGGLVQAGGSLRLSCAASGRIFPLYAMGWYRQAPGKERELVAAITSSGGSTYYADSVKGRFTISRDNAKNTVYLQMNSLKPEDTAVYYCAADYSVYWLDYGYWGQGTQVTVSS | low polyreactivity |
| QVQLVESGGGLVQAGGSLRLSCAASGRIFPLYAMGWYRQAPGKERELVAAITSSGGSTYYADSVKGRFTISRDNAKNTVYLQMNSLKPEDTAVYYCADEGYYSNYHYWGQGTQVTVSS | low polyreactivity |
| QVQLVESGGGLVQAGGSLRLSCAASGRIFPRYAMGWYRQAPGKERELVAAISWSGGRTYYADSVKGRFTISRDNAKNTVYLQMNSLKPEDTAVYYCAKYVGWYGSPGYDYWGQGTHVTVSS | low polyreactivity |
| QVQLVESGGGLVQAGGSLRLSCAASGRIFPSYAMGWYRHAPGKERELVAAITSSDSTYNADSVKGRFTISRDNAKNTVYFQMNSLKPEDTAVYYCAAAYSYSGWWWFDYWGQGTQVTVSS | high polyreactivity |
| QVQLVESGGGLVQAGGSLRLSCAASGRIFPSYAMGWYRQAPGKERELVAAISYSGASTYYADSVKGRFTISRDYAKNTVSLQMNSLKPEDTAVYYCNQLVEEDYWGQGTQVTVSS | low polyreactivity |
| QVQLVESGGGLVQAGGSLRLSCAASGRIFPTNAMGWYRQAPGKERELVASITRSGSTYYADSVKGRFTISRDNAKNTVYLQMNSLKPEDTAVYYCAADRSAVQFSAFLEYDYWGQGTQVTVSS | low polyreactivity |
| QVQLVESGGGLVQAGGSLRLSCAASGRIFPTYAMGWYRQAPGKERELVATITRRGGSTYYADSVKGRFTISRDNAKNTVYLQMNSLKPEDTAVYYCAARLWGTIRYDYWGQGTQVTVSS | high polyreactivity |
| QVQLVESGGGLVQAGGSLRLSCAASGRIFPTYTMGWYRQAPGKERELVAAINRGGGSTYYADSVKGRFTISRDNAKNTVYLQMNSLKPEDTAVYYCNARTYYRYYGYDYWGQGTQVTVSS | low polyreactivity |
| QVQLVESGGGLVQAGGSLRLSCAASGRIFPVNAMGWYRQATGKERELVARISWRGGTYYADSVKGRFTISRDNAKNTVYLQMNSLKPEDTAVYYCAATLPSTSYWYQYGYWGQGTQVTVSS | high polyreactivity |
| QVQLVESGGGLVQAGGSLRLSCAASGRIFPVYAMGWYRQAPGKERELVAAIRRTGGSTYYADSVKGRFTISRDNAKNTVYLQLNRLKPEDTAVYYCSVSSQPPLSRYGRFGVGYWGQGTQVTVSS | high polyreactivity |
| QVQLVESGGGLVQAGGSLRLSCAASGRIFPVYTMGWYRQAPGKERELVAAISGNGASTYYADSVKGRFTISRDNAKNTVYFHMNRLKPEYTAVYYCAAYFYYWGSTFVRYEYWGQGTQVTVSS | high polyreactivity |
| QVQLVESGGGLVQAGGSLRLSCAASGRIFPWNPMGWYRQAPGKERELVAGINNGDRTYYADSVKGRFTISRDNAKNTVYLQMNSLKPEDTAVYYCAVDTWYFLFQYGYYQEGDYWGQGTQVTVSS | low polyreactivity |
| QVQLVESGGGLVQAGGSLRLSCAASGRIFPWYAMGWYRQAPGKERELVAAISWSGGRTYYADSVKGRFTISRDNAKNTVYLQMNSLKPEDTAVYYCAAERVTYTISYSYSYDYWGQGTQVTVSS | high polyreactivity |
| QVQLVESGGGLVQAGGSLRLSCAASGRIFPWYSMGWYRQAPGKERELVAAISSSGGRTYYADSVKGRFTISRDNAKNTVYLQMNSLKPVDTAVYYCAADRRYISQRTYNYWGQGTQVTVSS | high polyreactivity |
| QVQLVESGGGLVQAGGSLRLSCAASGRIFPWYTMGWYRQAPGKERELVATIRGSGGSTHYADSVKGRFTISRDNAKNTVYLQMNSLKPEDTAVYYCATDRPRYRYQYKFDYWGQGTQVTVSS | low polyreactivity |
| QVQLVESGGGLVQAGGSLRLSCAASGRIFPYNAMGWSRQAPGQERELVARIDSGGRTNYADSVKGRFTISRDNAKNTVYLQMNSLKPEDTAVYYCARVFSLARSWYRYYYWGQGTQVTVSS | high polyreactivity |
| QVQLVESGGGLVQAGGSLRLSCAASGRIFPYNAMGWYRQAPGKEREFVASIRTRGVSTYYADSVKGRFTISRDNAKNTVYLQMNSLKPEDTAVYYCNAQRPGYAKGPRYDYWGQGTQVTVSS | high polyreactivity |
| QVQLVESGGGLVQAGGSLRLSCAASGRIFPYNVMGWYRPATGKERELVAAISWSGGRTYYADSVKGRFTISRDNAKNTVYLQMISLKPEDTAVYYCNTRTLVAMGYWGQGTQVTVSS | high polyreactivity |
| QVQLVESGGGLVQAGGSLRLSCAASGRIFPYYAMGWSRQAPGKERELVAAISLSGGSTYYADSVKGRFTISRDNAKNTVYLQMNSLKPEDTAVYYCNAVASTYGYYWYPGLGYDYWGQGTQVTVSS | low polyreactivity |
| QVQLVESGGGLVQAGGSLRLSCAASGRIFPYYAMGWYRQAPGKERELVAAISRIGGRTYYADSVKGRFTISRDNAKNTVSLQMNSLKPEDTAVYYCAAGYGGTFNCGQGTQVTVSS | high polyreactivity |

| Sequence | polyreactivity (PSR sort gate) |
| --- | --- |
| QVQLVESGGGLVQAGGSLRLSCAASGRIFPYYAMGWYRQAPGKERELVAAITARGGRTYYADSVKGRFSISRDNAKNTVYLQMNSLKPEETAVYYCNTGGRSGSPGYDYWGQGTQVTVSS | high polyreactivity |
| QVQLVESGGGLVQAGGSLRLSCAASGRIFPYYAMGWYRQAPGKERELVASTNYADSVKGRFTISRDNAKNTVYLQMNSLKPEDTAVYYCAADGYRYSVYLIRNPMDYWGQGTQVTVSS | low polyreactivity |
| QVQLVESGGGLVQAGGSLRLSCAASGRIFPYYAMGWYRQAPGKERELVATITWRGGITYYADSVKGRFTISRDNAKNTVYLQMNSLKPEDTAVYYCAVRKVYRSSFDYWGQGTQVTVSS | high polyreactivity |
| QVQLVESGGGLVQAGGSLRLSCAASGRIFPYYAMGWYRQEPGKEREFVAAISSSGDSTYYADSVKGRFTISRDNAKNTVYLQMNSLKPEDTPVYYCATRYRSSQWYSPYKYDYWGQGTQVTLSS | low polyreactivity |
| QVQLVESGGGLVQAGGSLRLSCAASGRIFPYYDMGWYRQAPGKEMELVATITWRGGITYYADSVKGRFTISRDNAKNTVYLQMNSLKPEDTAVYYCAVRKVYRSSFDYWGQGTQVTVSS | high polyreactivity |
| QVQLVESGGGLVQAGGSLRLSCAASGRIFPYYTMGWYRQAPGKERELVAAITSGGITYYADSVKGRFTISRDNAKNTVYLQMKSLKPEDTAVYSCAALHSGKYTRYKYGYWGQGTQVTVSS | high polyreactivity |
| QVQLVESGGGLVQAGGSLRLSCAASGRIFQANAMGWYRQAPGKERELVAAISWSGGSTYYADSVKGRFTISRDNAKNTVYLQMNSLKPEDTAVYYCAKDYVHQYGVYKVWANNYNYWGQGTQVTVSS | low polyreactivity |
| QVQLVESGGGLVQAGGSLRLSCAASGRIFQDNAMGWSRQAPGNERELVAAISKSGGITYYADSVKGRFTISRDNAKNTVYLQMNSLKPEDTAVYNCAAVWSRFLISYSTGWWFEYWGQGTQVTVSS | low polyreactivity |
| QVQLVESGGGLVQAGGSLRLSCAASGRIFQEYAMGWYRQAPGKERELVAAISSGGGSTYYADSVKGRFTISRDNAKNTVYLQMNSLKPEDTAVYYCAARVYIAYISMDHWGQGTQVTVSS | low polyreactivity |
| QVQLVESGGGLVQAGGSLRLSCAASGRIFQGYAMVWYRQAPGKERELVARITSGSNTNYADSVKGRFTISRDNAKNTVYLQMNSLKPEDTAVYYCAKEPVGSVRYGRFQQDDYWGQGTQVTVSS | low polyreactivity |
| QVQLVESGGGLVQAGGSLRLSCAASGRIFQGYVMGWYRQAPGKERELVAVISRRGGITNYADSVKGRFTISRDNAKNTVYLQMISLKPEDTAVYYCNDVTRVYNNGQYGYWGQGTQVTVSS | high polyreactivity |
| QVQLVESGGGLVQAGGSLRLSCAASGRIFQIYAMGWYRQAPGKERELVAAIRSGSNTNYADSVKGRFTISRDNAKNTVYLQMNSLKPEDTAVYYCAADGWYSAVGVWLEYDYWGQGTQVTVSS | low polyreactivity |
| QVQLVESGGGLVQAGGSLRLSCAASGRIFQIYAMGWYRQAPGKERELVAAIRSGSNTNYADSVKGRFTISRDNAMNTVYLQMNSLKPEDTAVYYCNALYTSLRKYNYWGQGTQVTVSS | low polyreactivity |
| QVQLVESGGGLVQAGGSLRLSCAASGRIFQIYAMGWYRQAPGKERELVAAISNRGGSTYYADSVKVRFTISRDNAKNTVYLQMNSLKPEDTAVYYFNATTGYGGYNYWGQGTKVTVSS | low polyreactivity |
| QVQLVESGGGLVQAGGSLRLSCAASGRIFQKYAMGWYRQAPGKERELGAAISSGDSTYADSVKGRFTISRDNAKNTVYLQMNSLKPEDTAVYYCAVDLYDPWWYSYIGEYEYWGQGTQVTVSS | low polyreactivity |
| QVQLVESGGGLVQAGGSLRLSCAASGRIFQNYALGWYRQAPGKERELVATISSGVSTYYADSVKGRFTISRDNAKNTVYLQMNSLKPEDTAVYYCAAYVPWFEMDYWGQGTQVTVSS | low polyreactivity |
| QVQLVESGGGLVQAGGSLRLSCAASGRIFQPNVMGWYRPAPGKERELVAAIRSGSSTYYADSVKGRFTISRDNAKYTVYLQMNCLKPEDTAVYFCATRYRKQYKPYEYWGQGTQVTVSS | high polyreactivity |
| QVQLVESGGGLVQAGGSLRLSCAASGRIFQRNAMGWYRQAPGKERELVAAITSTGVRTYYADSVKGRFTISRDNAKNTVFLQMNSLNPEDTAVYYCAVRGERRYYGSKEDYWGQGTQVTVSS | high polyreactivity |
| QVQLVESGGGLVQAGGSLRLSCAASGRIFQRYAMGWSRQAPGKERELVAPISWSVSSTYYADSVKGRFTISRDNAKNTVYLQMNSLKPEDTAVYYCNAAFHVTLGYLYREYDYWGQGTQVTVSS | high polyreactivity |
| QVQLVESGGGLVQAGGSLRLSCAASGRIFQRYAMGWYRQAPGKERELVAAISSRGGRTFYADSVKGRFTISRDNAKNTVYLQMNSLKPEDTAAYYCAATATVGSVTFDYWGQGTQVTVSS | high polyreactivity |
| QVQLVESGGGLVQAGGSLRLSCAASGRIFQWNTMGWYRQAPGKEREFVAAISGSGVSTYYADSVKGRFTISRDNAKNTVYLQMNSLKPEDTAVYYCATTYPAYGRRGYDYWGQGTQVNVSS | high polyreactivity |
